Source: US20050064539A1

Target: mannose-6-phosphate receptor (human (cultured skin fibroblasts from a Fabry disease patient)) (UniProt O00264)
Experiment: cell-based or functional assay

UniProt O00264, sequence (O00264 whole entry): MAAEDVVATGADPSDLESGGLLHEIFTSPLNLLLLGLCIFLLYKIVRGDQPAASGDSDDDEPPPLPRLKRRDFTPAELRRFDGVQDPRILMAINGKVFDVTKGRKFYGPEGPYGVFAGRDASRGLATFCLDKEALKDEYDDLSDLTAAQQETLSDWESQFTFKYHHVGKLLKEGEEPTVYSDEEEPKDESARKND

## mannosidase-treated α-galactosidase (human α-galactosidase produced by S. cerevisiae strain HPY21G, treated with Cellulomonas SO-5-derived α-mannosidase) (from UniProt P06280 32-429) (enzyme)
  α-galactosidase activity in the cell extract of Fabry patient-derived fibroblasts 18 hours after adding enzyme at 1 µg/ml (uptake experiment): 3 fold
